Experimental findings from the Human Domainome abundance scans (Beltran et al. 2025) are described below.

± gives the uncertainty stated by the source.

The nature of this data set: abundance fitness (aPCA) (normalised: wild type 0, dead -1); higher = more abundant; growth selection in yeast, the domain comes from the species named. The conditions noted are these: Homo sapiens.
In turn, “Scaffold attachment factor B2 N52D, Q14151” gave an abundance fitness of 0.11 ± 0.13. The result for “Scaffold attachment factor B2 N52E, Q14151” reads 0.123 ± 0.11. The result for “Scaffold attachment factor B2 N52F, Q14151” reads -0.701 ± 0.18; that for “Scaffold attachment factor B2 N52G, Q14151”, -0.037 ± 0.087. “Scaffold attachment factor B2 N52H, Q14151” displayed an abundance fitness of -0.719 ± 0.14. The result for “Scaffold attachment factor B2 N52I, Q14151” reads -0.237 ± 0.12. In the case of “Scaffold attachment factor B2 N52K, Q14151”, the abundance fitness is -0.123 ± 0.093. On to “Scaffold attachment factor B2 N52L, Q14151”, for which the abundance fitness was -0.511 ± 0.081. On to “Scaffold attachment factor B2 N52M, Q14151”, for which the abundance fitness was -0.442 ± 0.11. In the case of “Scaffold attachment factor B2 N52P, Q14151”, the abundance fitness is -0.074 ± 0.088.

On to “Scaffold attachment factor B2 N52Q, Q14151”, for which the abundance fitness was -0.63 ± 0.31. In turn, “Scaffold attachment factor B2 N52R, Q14151” registered an abundance fitness of -0.229 ± 0.081. The result for “Scaffold attachment factor B2 N52T, Q14151” reads -0.037 ± 0.093; that for “Scaffold attachment factor B2 N52V, Q14151”, -0.116 ± 0.089; that for “Scaffold attachment factor B2 N52W, Q14151”, -1.06 ± 0.13.

“Scaffold attachment factor B2 N52Y, Q14151” showed an abundance fitness of -0.587 ± 0.28. The result for “Scaffold attachment factor B2 Q69A, Q14151” reads -0.094 ± 0.13.

Substance “Scaffold attachment factor B2 Q69C, Q14151” gave an abundance fitness of -0.307 ± 0.2.

“Scaffold attachment factor B2 Q69F, Q14151” came in with an abundance fitness of -0.656 ± 0.2.

For the substance “Scaffold attachment factor B2 Q69G, Q14151”, the abundance fitness was found to be 0.174 ± 0.095. “Scaffold attachment factor B2 Q69H, Q14151” came in with an abundance fitness of -0.143 ± 0.2. “Scaffold attachment factor B2 Q69I, Q14151” displayed an abundance fitness of -0.262 ± 0.11.

As for “Scaffold attachment factor B2 Q69K, Q14151”, the abundance fitness is -0.164 ± 0.1. The result for “Scaffold attachment factor B2 Q69L, Q14151” reads -0.133 ± 0.11; that for “Scaffold attachment factor B2 Q69M, Q14151”, -0.27 ± 0.19; that for “Scaffold attachment factor B2 Q69N, Q14151”, -0.717 ± 0.32. “Scaffold attachment factor B2 Q69P, Q14151” yielded an abundance fitness of -0.227 ± 0.15. Take “Scaffold attachment factor B2 Q69R, Q14151”: the abundance fitness is -0.104 ± 0.074. The result for “Scaffold attachment factor B2 Q69S, Q14151” reads -0.077 ± 0.11; that for “Scaffold attachment factor B2 Q69T, Q14151”, -0.261 ± 0.12. Regarding “Scaffold attachment factor B2 Q69V, Q14151”, the abundance fitness was -0.175 ± 0.11. The result for “Scaffold attachment factor B2 Q69W, Q14151” reads -0.285 ± 0.13; that for “Scaffold attachment factor B2 R28A, Q14151”, -0.139 ± 0.094; that for “Scaffold attachment factor B2 R28C, Q14151”, -0.271 ± 0.15. The result for “Scaffold attachment factor B2 R28D, Q14151” reads 0.131 ± 0.081. For the substance “Scaffold attachment factor B2 R28E, Q14151”, the abundance fitness stood at 0.088 ± 0.1. For the substance “Scaffold attachment factor B2 R28G, Q14151”, the abundance fitness turned out to be 0.05 ± 0.071. The result for “Scaffold attachment factor B2 R28H, Q14151” reads 0.063 ± 0.2. The result for “Scaffold attachment factor B2 R28I, Q14151” reads -0.342 ± 0.18; that for “Scaffold attachment factor B2 R28K, Q14151”, -0.033 ± 0.14; that for “Scaffold attachment factor B2 R28L, Q14151”, -0.176 ± 0.11. With “Scaffold attachment factor B2 R28N, Q14151”, the abundance fitness was -0.005 ± 0.15. “Scaffold attachment factor B2 R28P, Q14151” registered an abundance fitness of -0.437 ± 0.22. The result for “Scaffold attachment factor B2 R28T, Q14151” reads -0.045 ± 0.12; that for “Scaffold attachment factor B2 R28W, Q14151”, -0.14 ± 0.086; that for “Scaffold attachment factor B2 R28Y, Q14151”, -0.377 ± 0.18. The substance “Scaffold attachment factor B2 R29C, Q14151” gave an abundance fitness of -0.474 ± 0.31. The result for “Scaffold attachment factor B2 R29D, Q14151” reads 0.089 ± 0.093; that for “Scaffold attachment factor B2 R29E, Q14151”, 0.113 ± 0.095; that for “Scaffold attachment factor B2 R29F, Q14151”, -0.237 ± 0.15. The result for “Scaffold attachment factor B2 R29G, Q14151” reads -0.127 ± 0.074; that for “Scaffold attachment factor B2 R29H, Q14151”, -0.099 ± 0.15. The result for “Scaffold attachment factor B2 R29I, Q14151” reads -0.211 ± 0.15; that for “Scaffold attachment factor B2 R29K, Q14151”, -0.038 ± 0.099.

Substance “Scaffold attachment factor B2 R29L, Q14151” registered an abundance fitness of -0.288 ± 0.07. The result for “Scaffold attachment factor B2 R29M, Q14151” reads -0.288 ± 0.13; that for “Scaffold attachment factor B2 R29N, Q14151”, -0.016 ± 0.11; that for “Scaffold attachment factor B2 R29P, Q14151”, -0.117 ± 0.13. The result for “Scaffold attachment factor B2 R29Q, Q14151” reads -0.162 ± 0.1; that for “Scaffold attachment factor B2 R29S, Q14151”, -0.097 ± 0.1. For the substance “Scaffold attachment factor B2 R29T, Q14151”, the abundance fitness was -0.01 ± 0.16. In turn, “Scaffold attachment factor B2 R29V, Q14151” registered an abundance fitness of -0.233 ± 0.08. The result for “Scaffold attachment factor B2 R29W, Q14151” reads -0.246 ± 0.083. The result for “Scaffold attachment factor B2 R29Y, Q14151” reads -0.4 ± 0.12; that for “Scaffold attachment factor B2 R34A, Q14151”, 0.049 ± 0.079. The result for “Scaffold attachment factor B2 R34D, Q14151” reads -0.055 ± 0.12. With “Scaffold attachment factor B2 R34F, Q14151”, the abundance fitness is -0.673 ± 0.23. With “Scaffold attachment factor B2 R34G, Q14151”, the abundance fitness was found to be 0.012 ± 0.077. With “Scaffold attachment factor B2 R34H, Q14151”, the abundance fitness was -0.205 ± 0.13. The result for “Scaffold attachment factor B2 R34I, Q14151” reads -0.75 ± 0.15. The result for “Scaffold attachment factor B2 R34K, Q14151” reads -0.184 ± 0.12; that for “Scaffold attachment factor B2 R34L, Q14151”, -0.473 ± 0.089. “Scaffold attachment factor B2 R34M, Q14151” returned an abundance fitness of -0.31 ± 0.1. The result for “Scaffold attachment factor B2 R34N, Q14151” reads -0.456 ± 0.33; that for “Scaffold attachment factor B2 R34P, Q14151”, 0.02 ± 0.13; that for “Scaffold attachment factor B2 R34Q, Q14151”, 0.003 ± 0.081. The result for “Scaffold attachment factor B2 R34S, Q14151” reads 0.14 ± 0.087. As to “Scaffold attachment factor B2 R34T, Q14151”, the abundance fitness is 0.157 ± 0.099. The result for “Scaffold attachment factor B2 R34V, Q14151” reads -0.45 ± 0.087; that for “Scaffold attachment factor B2 R34W, Q14151”, -0.679 ± 0.086; that for “Scaffold attachment factor B2 R34Y, Q14151”, -0.616 ± 0.12.

Substance “Scaffold attachment factor B2 R39G, Q14151” had an abundance fitness of -0.606 ± 0.14.

On to “Scaffold attachment factor B2 R45C, Q14151”, for which the abundance fitness was -0.686 ± 0.14. “Scaffold attachment factor B2 R45D, Q14151” registered an abundance fitness of -0.52 ± 0.13. For the substance “Scaffold attachment factor B2 R45E, Q14151”, the abundance fitness was -0.411 ± 0.097. The result for “Scaffold attachment factor B2 R45F, Q14151” reads -0.784 ± 0.21; that for “Scaffold attachment factor B2 R45G, Q14151”, -0.486 ± 0.08; that for “Scaffold attachment factor B2 R45H, Q14151”, -0.721 ± 0.23.

With “Scaffold attachment factor B2 R45K, Q14151”, the abundance fitness was -0.374 ± 0.12. The result for “Scaffold attachment factor B2 R45L, Q14151” reads -0.201 ± 0.078; that for “Scaffold attachment factor B2 R45M, Q14151”, -0.66 ± 0.29; that for “Scaffold attachment factor B2 R45N, Q14151”, -0.99 ± 0.24.

“Scaffold attachment factor B2 R45P, Q14151”: the abundance fitness was -0.682 ± 0.11. Consider “Scaffold attachment factor B2 R45Q, Q14151”, for which the abundance fitness was -0.326 ± 0.091. The result for “Scaffold attachment factor B2 R45S, Q14151” reads -0.509 ± 0.092; that for “Scaffold attachment factor B2 R45T, Q14151”, -0.576 ± 0.11.
